Drawing on paper PMC4338608, this text covers Kd, koff and kon for two substances.

Common to all, as to assay: resonant mirror detection
Assay [1] has as its target GST-NHE1cd mutant M3 (K513KK→AAA) (rat (Rattus norvegicus)).
Assay [2] has as its target recombinant human calmodulin with four extra N-terminal amino acids Gly-Ser-His-Met (human).
In assay [3] the target is GST-NHE1cd mutant M1 (K513KKQETKR→AAAQETAA) (rat (Rattus norvegicus)).
Assay [4] addresses GST-NHE1cd mutant M2 (R556FNKKYVKK→…) (rat (Rattus norvegicus)).

In assay [1], “recombinant 4.1R FERM domain (from UniProt P11171 210-488) (domain or fragment)” registered a Kd of 545 nM, a koff of 0.065 s⁻¹ and a kon of 120000 M⁻¹ s⁻¹. Besides, the Kd in assay [2] amounted to 100 nM.
“exon 5-encoded human 4.1R^80 polypeptide (GST fusion) (domain or fragment)”: in assay [3], the Kd was found to be 4790 nM and the kon stood at 250 M⁻¹ s⁻¹. For the same substance, in assay [4], the equilibrium dissociation constant (Kd) amounted to 26100 nM and the kon is 240 M⁻¹ s⁻¹.
